Assay results published in patent US20250281611A1 (BIOSCEPTRE AUST, published 2025).

Experiments:
CD33 [1] = biological target: T1, CD33 (UniProt P20138 18-364, limits assumed); assay: flow cytometry, MOLM-13 cells, anti-His-FITC detection
T1 construct: whole, on cells; also called Siglec-3; CD33 on MOLM-13 cells
Method: (§1) MOLM-13 cells were incubated with different CD33 BRIDGE variants at saturating concentrations. […] The MFI intensity correlates with the number of secondary antibodies bound to the CD33 BRIDGE variants that are only detected if they are bound to the MOLM-13 cells. MFI: median fluorescence intensity. BLItz: Bio-Layer interferometry (BLI) technology using HIS-tag identification tips. […] The higher the MFIR, the stronger the binding.

nfP2X7 CAR 1 [2] = biological target: T2, nfP2X7 CAR 1; assay: flow cytometry, CAR T cells, anti-His-FITC, EGFR+ over EGFR- cells
T2 construct: Expressed on T cells with truncated EGFR as marker gene; also called anti-nfP2X7 receptor CAR 1; nfP2X7 targeted CAR on EGFR+ T cells
Method: (§2) nfP2X₇ CAR T cells were incubated with different BRiDGE variants at saturating concentrations. […] The MFI intensity correlates with the number of secondary bound antibodies bound to the BRiDGEs that are only detected if they are bound to the CAR T cells. EGFR was used as a marker gene to detect the CAR expression. Thus, the EGFR+ T cell population was defined as the CAR expressing cells and the EGFR− T cell population was defined as the CAR negative subset. MFI: median fluorescence intensity. EGFR: epidermal growth factor receptor. BLItz: Bio-Layer interferometry (BLI) technology using HIS-tag identification tips. HIS-tag MFI Ratio: relative index that is calculated by the testing condition MFI divided by the control MFI, which corresponds to the MFI measured on EGFR+ T cells (defined as CAR positive cells) divided by the MFI measured on the EGFR− T cells (defined as CAR negative cells). […] The higher the MFIR, the stronger the binding.

nfP2X7 CAR 1 [3] = biological target: T2, nfP2X7 CAR 1; assay: flow cytometry, nfP2X7 CAR T cells (EGFR+), anti-His-FITC detection
Method: as §2

nfP2X7 CAR 1 [4] = biological target: T2, nfP2X7 CAR 1; assay: flow cytometry, CAR T cells, anti-His-FITC, EGFR+ MFI over background 0.4
Method: as §2

CD33 [5] = biological target: T1, CD33; assay: flow cytometry, MOLM-13 cells, anti-His-FITC detection, ratio to no bridge
Method: as §1

T1 sequence (P20138 18-364 limits assumed): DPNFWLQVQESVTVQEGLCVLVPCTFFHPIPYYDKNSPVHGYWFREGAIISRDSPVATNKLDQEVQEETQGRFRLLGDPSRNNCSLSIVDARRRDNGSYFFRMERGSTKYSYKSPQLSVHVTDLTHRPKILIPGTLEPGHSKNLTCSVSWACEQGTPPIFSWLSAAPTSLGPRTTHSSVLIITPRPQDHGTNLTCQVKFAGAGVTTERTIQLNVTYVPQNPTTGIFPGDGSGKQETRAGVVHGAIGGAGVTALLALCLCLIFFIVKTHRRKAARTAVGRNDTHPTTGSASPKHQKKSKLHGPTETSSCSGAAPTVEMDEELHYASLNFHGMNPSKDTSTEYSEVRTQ

| Binder | MFI HisTag FITC (CD33 [1]) | HisTag MFI Ratio of EGFR+/EGFR- (nfP2X7 CAR 1 [2]) | MFI HisTag FITC in EGFR+ Population (nfP2X7 CAR 1 [3]) | HisTag MFI Ratio (background 0.4) (nfP2X7 CAR 1 [4]) | MFIR HisTag FITC (CD33 [5]) |
| --- | --- | --- | --- | --- | --- |
| CD33 BRIDGE variant B8 (Fab, V domains shown, Lintuzumab-based Fab bridging molecule) VH: QVQLVQSGAEVKKPGSSVKVSCKASGYTFTDYNMHWVRQAPGQGLEWIGYIYPYNGGTGYNQKFKSKATITADESTNTAYMELSSLRSEDTAVYYCARGRPAMDYWGQGTLVTVSS VL: DIQMTQSPSSLSASVGDRVTITCRASESVDNYGISFMNWFQQKPGKAPKLLIYAASNQGSGVPSRFSGSGSGTDFTLTISSLQPDDFATYYCQQSKEVPWTFGQGTKVEIKR | 6.53 | 2.9 | 1.34 | 3.4 | 9.75 |
| CD33 BRIDGE variant B14 (Fab, V domains shown, Lintuzumab-based Fab bridging molecule) VH: QVQLVQSGAEVKKPGSSVKVSCKASGYTFTDYNMHWVRQAPGQGLEWIGYIYPYNGGTGYNQKFKSKATITADESTNTAYMELSSLRSEDTAVYYCARGRPAMDYWGQGTLVTVSS VL: DIQMTQSPSSLSASVGDRVTITCRASESVDNYGISFMNWFQQKPGKAPKLLIYAASNQGSGVPSRFSGSGSGTDFTLTISSLQPDDFATYYCQQSKEVPWTFGQGTKVEIKR | 6.68 | 2.9 | 1.44 | 3.6 | 9.97 |
| CD33 BRIDGE variant B13 (Fab, V domains shown, Lintuzumab-based Fab bridging molecule) VH: QVQLVQSGAEVKKPGSSVKVSCKASGYTFTDYNMHWVRQAPGQGLEWIGYIYPYNGGTGYNQKFKSKATITADESTNTAYMELSSLRSEDTAVYYCARGRPAMDYWGQGTLVTVSS VL: DIQMTQSPSSLSASVGDRVTITCRASESVDNYGISFMNWFQQKPGKAPKLLIYAASNQGSGVPSRFSGSGSGTDFTLTISSLQPDDFATYYCQQSKEVPWTFGQGTKVEIKR | 6.78 | 2.9 | 1.35 | 3.4 | 10.1 |
| CD33 BRIDGE variant B19 (Fab, V domains shown, Lintuzumab-based Fab bridging molecule) VH: QVQLVQSGAEVKKPGSSVKVSCKASGYTFTDYNMHWVRQAPGQGLEWIGYIYPYNGGTGYNQKFKSKATITADESTNTAYMELSSLRSEDTAVYYCARGRPAMDYWGQGTLVTVSS VL: DIQMTQSPSSLSASVGDRVTITCRASESVDNYGISFMNWFQQKPGKAPKLLIYAASNQGSGVPSRFSGSGSGTDFTLTISSLQPDDFATYYCQQSKEVPWTFGQGTKVEIKR | 5.35 | 2.9 | 1.29 | 3.2 | 7.99 |
| CD33 BRIDGE variant B9 (Fab, V domains shown, Lintuzumab-based Fab bridging molecule) VH: QVQLVQSGAEVKKPGSSVKVSCKASGYTFTDYNMHWVRQAPGQGLEWIGYIYPYNGGTGYNQKFKSKATITADESTNTAYMELSSLRSEDTAVYYCARGRPAMDYWGQGTLVTVSS VL: DIQMTQSPSSLSASVGDRVTITCRASESVDNYGISFMNWFQQKPGKAPKLLIYAASNQGSGVPSRFSGSGSGTDFTLTISSLQPDDFATYYCQQSKEVPWTFGQGTKVEIKR | 6.33 | 2.8 | 1.16 | 2.9 | 9.45 |
| CD33 BRIDGE variant B20 (Fab, V domains shown, Lintuzumab-based Fab bridging molecule) VH: QVQLVQSGAEVKKPGSSVKVSCKASGYTFTDYNMHWVRQAPGQGLEWIGYIYPYNGGTGYNQKFKSKATITADESTNTAYMELSSLRSEDTAVYYCARGRPAMDYWGQGTLVTVSS VL: DIQMTQSPSSLSASVGDRVTITCRASESVDNYGISFMNWFQQKPGKAPKLLIYAASNQGSGVPSRFSGSGSGTDFTLTISSLQPDDFATYYCQQSKEVPWTFGQGTKVEIKR | 5.67 | 2.9 | 1.29 | 3.2 | 8.46 |
| CD33 BRIDGE variant B12 (Fab, Lintuzumab-based Fab bridging molecule) light: GHNYTTRNILPGLNITSTFHKTSGSGKGGGGSEPKSSDKTHTGSDIQMTQSPSSLSASVGDRVTITCRASESVDNYGISFMNWFQQKPGKAPKLLIYAASNQGSGVPSRFSGSGSGTDFTLTISSLQPDDFATYYCQQSKEVPWTFGQGTKVEIKRTVAAPSVFIFPPSDEQLKSGTASVVCLLNNFYPREAKVQWKVDNALQSGNSQESVTEQDSKDSTYSLSSTLTLSKADYEKHKVYACEVTHQGLSSPVTKSFNRGECHHHHHH heavy: QVQLVQSGAEVKKPGSSVKVSCKASGYTFTDYNMHWVRQAPGQGLEWIGYIYPYNGGTGYNQKFKSKATITADESTNTAYMELSSLRSEDTAVYYCARGRPAMDYWGQGTLVTVSSASTKGPSVFPLAPSSKSTSGGTAALGCLVKDYFPEPVTVSWNSGALTSGVHTFPAVLQSSGLYSLSSVVTVPSSSLGTQTYICNVNHKPSNTKVDKKVEPKSCHHHHHH | 6.08 | 3.1 | 1.55 | 3.9 | 9.07 |
| CD33 BRIDGE variant B17 (Fab, Lintuzumab-based Fab bridging molecule) light: GHNYTTRNILPGLNITSTFHKTSGSGKGSEPKSSDKTHTGGGGSDIQMTQSPSSLSASVGDRVTITCRASESVDNYGISFMNWFQQKPGKAPKLLIYAASNQGSGVPSRFSGSGSGTDFTLTISSLQPDDFATYYCQQSKEVPWTFGQGTKVEIKRTVAAPSVFIFPPSDEQLKSGTASVVCLLNNFYPREAKVQWKVDNALQSGNSQESVTEQDSKDSTYSLSSTLTLSKADYEKHKVYACEVTHQGLSSPVTKSFNRGECHHHHHH heavy: QVQLVQSGAEVKKPGSSVKVSCKASGYTFTDYNMHWVRQAPGQGLEWIGYIYPYNGGTGYNQKFKSKATITADESTNTAYMELSSLRSEDTAVYYCARGRPAMDYWGQGTLVTVSSASTKGPSVFPLAPSSKSTSGGTAALGCLVKDYFPEPVTVSWNSGALTSGVHTFPAVLQSSGLYSLSSVVTVPSSSLGTQTYICNVNHKPSNTKVDKKVEPKSCHHHHHH | 7.36 | 3.2 | 1.58 | 4 | 11 |
| CD33 BRIDGE variant B16 (Fab, Lintuzumab-based Fab bridging molecule) light: GHNYTTRNILPGLNITSTFHKTSGSGKEPKSSDKTHTGGGGSDIQMTQSPSSLSASVGDRVTITCRASESVDNYGISFMNWFQQKPGKAPKLLIYAASNQGSGVPSRFSGSGSGTDFTLTISSLQPDDFATYYCQQSKEVPWTFGQGTKVEIKRTVAAPSVFIFPPSDEQLKSGTASVVCLLNNFYPREAKVQWKVDNALQSGNSQESVTEQDSKDSTYSLSSTLTLSKADYEKHKVYACEVTHQGLSSPVTKSFNRGECHHHHHH heavy: QVQLVQSGAEVKKPGSSVKVSCKASGYTFTDYNMHWVRQAPGQGLEWIGYIYPYNGGTGYNQKFKSKATITADESTNTAYMELSSLRSEDTAVYYCARGRPAMDYWGQGTLVTVSSASTKGPSVFPLAPSSKSTSGGTAALGCLVKDYFPEPVTVSWNSGALTSGVHTFPAVLQSSGLYSLSSVVTVPSSSLGTQTYICNVNHKPSNTKVDKKVEPKSCHHHHHH | 6.27 | 3.4 | 1.83 | 4.6 | 9.36 |
| CD33 BRIDGE variant B18 (Fab, Lintuzumab-based Fab bridging molecule) light: GHNYTTRNILPGLNITSTFHKTSGSGKGGGGSEPKSSDKTHTGGGGSDIQMTQSPSSLSASVGDRVTITCRASESVDNYGISFMNWFQQKPGKAPKLLIYAASNQGSGVPSRFSGSGSGTDFTLTISSLQPDDFATYYCQQSKEVPWTFGQGTKVEIKRTVAAPSVFIFPPSDEQLKSGTASVVCLLNNFYPREAKVQWKVDNALQSGNSQESVTEQDSKDSTYSLSSTLTLSKADYEKHKVYACEVTHQGLSSPVTKSFNRGECHHHHHH heavy: QVQLVQSGAEVKKPGSSVKVSCKASGYTFTDYNMHWVRQAPGQGLEWIGYIYPYNGGTGYNQKFKSKATITADESTNTAYMELSSLRSEDTAVYYCARGRPAMDYWGQGTLVTVSSASTKGPSVFPLAPSSKSTSGGTAALGCLVKDYFPEPVTVSWNSGALTSGVHTFPAVLQSSGLYSLSSVVTVPSSSLGTQTYICNVNHKPSNTKVDKKVEPKSCHHHHHH | 5.79 | 3.4 | 1.79 | 4.5 | 8.64 |
| CD33 BRIDGE variant B15 (Fab, Lintuzumab-based Fab bridging molecule) light: GHNYTTRNILPGLNITSGGGGSEPKSSDKTHTGGGGSDIQMTQSPSSLSASVGDRVTITCRASESVDNYGISFMNWFQQKPGKAPKLLIYAASNQGSGVPSRFSGSGSGTDFTLTISSLQPDDFATYYCQQSKEVPWTFGQGTKVEIKRTVAAPSVFIFPPSDEQLKSGTASVVCLLNNFYPREAKVQWKVDNALQSGNSQESVTEQDSKDSTYSLSSTLTLSKADYEKHKVYACEVTHQGLSSPVTKSFNRGECHHHHHH heavy: QVQLVQSGAEVKKPGSSVKVSCKASGYTFTDYNMHWVRQAPGQGLEWIGYIYPYNGGTGYNQKFKSKATITADESTNTAYMELSSLRSEDTAVYYCARGRPAMDYWGQGTLVTVSSASTKGPSVFPLAPSSKSTSGGTAALGCLVKDYFPEPVTVSWNSGALTSGVHTFPAVLQSSGLYSLSSVVTVPSSSLGTQTYICNVNHKPSNTKVDKKVEPKSCHHHHHH | 7.64 | 3.1 | 1.5 | 3.8 | 11.4 |
